In publication PMC10558373, “[^68Ga]Ga-NODAGA-E[(cRGDyK)]2 angiogenesis PET following myocardial infarction in an experimental rat model predicts cardiac functional parameters and development of heart failure” (Journal of Nuclear Cardiology, 2023):
One block for each molecule: values may come before it. [ ]: non-standard residue; d: D form.

Legend:
[1] = target: integrin αvβ3 (UniProt P06756); test: SPR; Biacore X100, CM5 chip, integrin αvβ3 amine-coupled (~4200 RU), single cycle kinetics; running buffer Tris-HCl 20 mM, NaCl 150 mM, P20 0.05%, MgCl2 1 mM and MnCl2 1 mM, pH 7.4; kinetic fit, steady state fit for fibronectin
[2] = target: integrin αvβ3 (UniProt P06756); test: SPR; Biacore X100, CM5 chip, integrin αvβ3 amine-coupled (~4200 RU), single cycle kinetics; running buffer Tris-HCl 20 mM, NaCl 150 mM, P20 0.05%, MgCl2 1 mM, pH 7.4; kinetic fit, steady state fit for fibronectin
[3] = target: T1, integrin αvβ3 (UniProt P06756 31-1048; P05106 27-788); test: SPR; Mg2+
T1 chain 1: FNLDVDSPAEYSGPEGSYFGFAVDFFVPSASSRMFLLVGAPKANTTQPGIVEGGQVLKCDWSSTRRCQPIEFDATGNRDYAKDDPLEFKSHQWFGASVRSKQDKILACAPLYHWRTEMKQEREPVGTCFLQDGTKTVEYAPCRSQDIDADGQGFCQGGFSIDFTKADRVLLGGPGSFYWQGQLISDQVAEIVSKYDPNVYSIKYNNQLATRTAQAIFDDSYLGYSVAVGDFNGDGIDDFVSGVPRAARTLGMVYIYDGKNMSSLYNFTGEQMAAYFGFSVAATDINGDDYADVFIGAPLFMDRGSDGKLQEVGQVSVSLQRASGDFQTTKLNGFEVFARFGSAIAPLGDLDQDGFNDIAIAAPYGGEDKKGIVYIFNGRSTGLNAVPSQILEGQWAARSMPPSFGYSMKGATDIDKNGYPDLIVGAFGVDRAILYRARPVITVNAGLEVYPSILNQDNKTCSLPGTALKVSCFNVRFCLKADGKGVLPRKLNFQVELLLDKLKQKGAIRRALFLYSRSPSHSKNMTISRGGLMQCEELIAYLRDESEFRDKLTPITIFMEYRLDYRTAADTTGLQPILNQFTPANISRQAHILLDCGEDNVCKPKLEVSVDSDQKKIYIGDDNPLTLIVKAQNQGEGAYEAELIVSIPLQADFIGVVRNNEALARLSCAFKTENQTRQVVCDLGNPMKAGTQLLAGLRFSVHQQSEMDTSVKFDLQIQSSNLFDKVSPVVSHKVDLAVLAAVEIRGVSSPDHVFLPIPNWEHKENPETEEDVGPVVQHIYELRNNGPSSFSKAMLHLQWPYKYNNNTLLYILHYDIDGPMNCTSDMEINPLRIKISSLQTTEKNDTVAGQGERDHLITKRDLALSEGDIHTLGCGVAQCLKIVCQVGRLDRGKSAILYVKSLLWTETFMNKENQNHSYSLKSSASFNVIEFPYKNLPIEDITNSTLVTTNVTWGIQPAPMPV
T1 chain 2: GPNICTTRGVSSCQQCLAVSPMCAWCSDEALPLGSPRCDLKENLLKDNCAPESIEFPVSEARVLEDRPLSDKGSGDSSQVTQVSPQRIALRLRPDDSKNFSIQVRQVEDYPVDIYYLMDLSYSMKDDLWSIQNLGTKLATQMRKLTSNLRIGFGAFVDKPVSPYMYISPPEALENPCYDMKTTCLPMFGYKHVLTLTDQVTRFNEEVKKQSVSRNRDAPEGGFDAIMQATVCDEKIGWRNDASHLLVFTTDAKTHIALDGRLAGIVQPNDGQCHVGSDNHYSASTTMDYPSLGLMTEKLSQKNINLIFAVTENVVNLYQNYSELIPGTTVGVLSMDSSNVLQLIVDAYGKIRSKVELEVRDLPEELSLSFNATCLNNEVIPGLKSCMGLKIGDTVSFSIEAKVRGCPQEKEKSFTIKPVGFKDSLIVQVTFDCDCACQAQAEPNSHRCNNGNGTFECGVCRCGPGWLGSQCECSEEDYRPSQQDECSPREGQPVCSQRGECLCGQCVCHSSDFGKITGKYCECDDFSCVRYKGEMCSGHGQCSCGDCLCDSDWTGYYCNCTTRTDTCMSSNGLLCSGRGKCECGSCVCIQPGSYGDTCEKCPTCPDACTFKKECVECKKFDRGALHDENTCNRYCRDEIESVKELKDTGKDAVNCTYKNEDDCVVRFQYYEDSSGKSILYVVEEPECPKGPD

[4] = target: integrin αvβ3 (UniProt P06756); test: SPR; Biacore X100, CM5 chip, integrin αvβ3 amine-coupled (~4200 RU), single cycle kinetics; running buffer Tris-HCl 20 mM, NaCl 150 mM, P20 0.05%, MgCl2 1 mM and MnCl2 1 mM, pH 7.4; kinetic fit, steady state fit for fibronectin; remark: listed apart in the source
[5] = target: integrin αvβ3 (UniProt P06756); test: SPR; Biacore X100, CM5 chip, integrin αvβ3 amine-coupled (~4200 RU), single cycle kinetics; running buffer Tris-HCl 20 mM, NaCl 150 mM, P20 0.05%, MgCl2 1 mM, pH 7.4; kinetic fit, steady state fit for fibronectin; remark: listed apart in the source
[6] = target: T1, integrin αvβ3; test: SPR; Mg2+ + Mn2+
[7] = target: T1, integrin αvβ3; test: SPR; Mg2+ + Mn2+
[8] = target: T1, integrin αvβ3; test: SPR; Mg2+
[9] = target: integrin αvβ3 (UniProt P06756 31-1048; P05106 27-788); test: SPR; Biacore X100, single cycle kinetics, in the presence of Mg2+ and Mn2+; settings: both partners purified

Kd [1]: 24 nM
koff [1]: 0.00032 s⁻¹
kon [1]: 13000 M⁻¹ s⁻¹
Kd [2]: 1.3 nM
koff [2]: 0.00021 s⁻¹
kon [2]: 32000 M⁻¹ s⁻¹
Molecule: vitronectin (from UniProt P04004 20-478) (ligand)

koff [3]: 7e-05 s⁻¹
Kd [4]: 0.00071 nM
koff [4]: 2.5e-07 s⁻¹
kon [4]: 350000 M⁻¹ s⁻¹
Kd [5]: 0.075 nM
koff [5]: 7e-05 s⁻¹
kon [5]: 930000 M⁻¹ s⁻¹
koff [6]: 2.5e-07 s⁻¹
Kd [7]: 0.00071 nM
Kd [8]: 0.075 nM
fold stronger binding than vitronectin [9]: 1000 fold
B1: [^68Ga]Ga-NODAGA-E[(cRGDyK)]2 (peptide)
chain: cyclo(RGD[dY]K)
modifications: also: dimer of two cyclic peptides on a Glu linker, NODAGA chelator with 68Ga
